For orientation: Kd means the constant that tells how readily two partners part at equilibrium. Read a low Kd as a tighter complex.

The labels stand for the following.
B1: IGF1R-5 VHH, wild-type (VHH)
VHH: QVKLEESGGGLVQAGGSLRLSCAASGRTIDNYAMAWSRQAPGKDREFVATIDWGDGGARYANSVKGRFTISRDNAKGTMYLQMNNLEPEDTAVYSCAMARQSRVNLDVARYDYWGQGTQVTVSS
notes: anti-human IGF1R; bears Ala57, Asn82b (Kabat); source: E. coli TG1, periplasm (osmotic shock), purified (IMAC)
B2: IGF1R-5 VHH, humanized (VHH)
VHH: QVQLVESGGGLVQPGGSLRLSCAASGRTIDNYAMAWSRQAPGKGLEFVATIDWGDGGTRYANSVKGRFTISRDNSKNTMYLQMNSLRAEDTAVYYCAMARQSRVNLDVARYDYWGQGTLVTVSS
notes: as the VHH of m23 with FRs reverted to human IGHV3 germline; also called humanized IGF1R-5; source: E. coli TG1, periplasm (osmotic shock), purified (IMAC); periplasmic extract for protein A chromatography
B3: IGF1R-4 VHH, wild-type (VHH)
VHH: QVKLEESGGGLVQAGGSLRLSCEVSGGTVSPTAMGWFRQAPGKEREFVGHITWSRGTTRVASSVKDRFTISRDSAKNTVYLQMNSLKSEDTAVYYCAASTFLRILPEESAYTYWGQGTQVTVSS
notes: anti-human IGF1R; bears Val59, Asp65 (Kabat); source: E. coli TG1, periplasm (osmotic shock), purified (IMAC)
B4: IGF1R-4 VHH, humanized (VHH)
VHH: QVQLVESGGGLVQPGGSLRLSCAVSGGTVSPTAMGWFRQAPGKGLEFVGHITWSRGTTRYASSVKGRFTISRDNSKNTVYLQMNSLRAEDTAVYYCAASTFLRILPEESAYTYWGQGTLVTVSS
notes: as the VHH of m18 with FRs reverted to human IGHV3 germline; also called humanized IGF1R-4; source: E. coli TG1, periplasm (osmotic shock), purified (IMAC); periplasmic extract for protein A chromatography
B5: ICAM11-4 VHH, wild-type (VHH)
VHH: QVQLVESGGGLVQPGGSLRLSCAASGSISSLYVMGWYRQAPGKQRELVADITSSGSIYYVDSLKGRFTISRDNARSTVYLQMNSLEPEDTAVYYCMAHVRQDSGSEYLTYWGQGTQVTVSS
notes: anti-human ICAM-1; bears Ile57 (Kabat); source: E. coli TG1, periplasm (osmotic shock), purified (IMAC)
B6: ICAM11-4 VHH I57T (SpA-engineered) (VHH)
VHH: B5 VHH with I57T
notes: as the VHH of m6 with the stated change; numbers count on: Kabat numbering; also called ICAM11-4 I57T; SpA-engineered ICAM11-4; source: E. coli TG1, periplasm (osmotic shock), purified (IMAC); periplasmic extract for protein A chromatography
B7: ICAM34-1 VHH, wild-type (VHH)
VHH: QVKLEESGGGLVQPGGSLRLSCAASGSIFSINDMGWYRQAPGKQRELVARITRDGSAAYEDSVKGRFTISRDNAPNTVFLQMNGLKPEDTAVYYCNAEIITTQTLGRMLGEYWGQGTQVTVSS
notes: anti-human ICAM-1; bears Ala57, Pro75, Gly82b (Kabat); source: E. coli TG1, periplasm (osmotic shock), purified (IMAC)

Positions count from the first letter of the chain named. Numbers in names are those of the source.

T1 sequence (P08069 741-935): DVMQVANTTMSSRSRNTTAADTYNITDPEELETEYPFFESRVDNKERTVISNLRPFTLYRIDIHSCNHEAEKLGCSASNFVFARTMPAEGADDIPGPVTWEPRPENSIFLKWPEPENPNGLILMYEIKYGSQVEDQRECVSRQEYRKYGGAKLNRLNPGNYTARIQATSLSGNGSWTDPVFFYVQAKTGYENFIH

One assay addresses T1, human IGF1R ectodomain (Homo sapiens, UniProt P08069).
T1 construct: human IGF1R, ectodomain; source: bought: R&D Systems
The assay is described as follows: SPR; SEC-purified VHH monomers, 0.1-10 nM, over human IGF1R ectodomain amine-coupled to a CM5 chip (476 RU); 25°C, HBS-EP pH 7.4; 1:1 binding model. Conditions: both partners purified. In general terms: In SPR one partner is held on a chip, and binding of the other changes the refractive index at the surface.
As to B1, the affinity, expressed as Kd, was 0.8 nM. Consider B2, for which binding was characterised by a dissociation constant (Kd) of 0.9 nM.

B3 came in with a Kd of 0.3 nM.

Molecule B4 returned a Kd of 0.4 nM.

The target in the next assay is T2, human ICAM-1 ectodomain (Homo sapiens, UniProt P05362).
T2 construct: human ICAM-1, ectodomain; source: bought: R&D Systems
T2 sequence (P05362 28-480): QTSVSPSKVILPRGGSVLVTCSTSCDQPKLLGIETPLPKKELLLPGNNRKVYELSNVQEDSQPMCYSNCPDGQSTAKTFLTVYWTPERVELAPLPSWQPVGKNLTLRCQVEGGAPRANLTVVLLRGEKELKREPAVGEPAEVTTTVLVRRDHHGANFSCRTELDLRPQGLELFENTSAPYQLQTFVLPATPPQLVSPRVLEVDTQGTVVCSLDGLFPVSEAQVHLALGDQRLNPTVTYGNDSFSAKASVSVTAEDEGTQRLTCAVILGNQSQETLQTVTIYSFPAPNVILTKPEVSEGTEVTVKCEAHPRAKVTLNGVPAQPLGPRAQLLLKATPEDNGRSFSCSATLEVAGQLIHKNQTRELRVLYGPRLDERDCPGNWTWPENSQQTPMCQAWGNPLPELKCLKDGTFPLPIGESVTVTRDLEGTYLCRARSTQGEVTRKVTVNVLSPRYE
The assay is described as follows: SPR; SEC-purified VHH monomers, 0.5-200 nM, over human ICAM-1 ectodomain amine-coupled to a CM5 chip (1348 RU); 25°C, HBS-EP pH 7.4; 1:1 binding model. Particulars: both partners purified.
The molecule B5 had a Kd of 0.9 nM. B6 had a Kd of 1.3 nM. The Kd values of the last two molecules are within 1.5-fold of each other. B7 displayed a Kd of 32 nM.

These data come from PMC5025174 (PLoS ONE, 2016).
